Laboratory results reported in PMC7835385.
One block for each substance: values may come before it.

Columns and labels:
[1] = molecular target: skeletal muscle actin, filamentous (F-actin) (rabbit) (UniProt P68135)
[2] = molecular target: full-length myosin-7a holoenzyme (Drosophila), FLAG-tagged (Drosophila) (UniProt Q9V3Z6); assay: single-molecule mass photometry; 20 nM myosin-7a or M7BP alone, or 20 nM M7BP with 10 nM myosin-7a; 150 mM NaCl, 2 mM MgCl2, 0.1 mM EGTA, 10 mM MOPS, pH 7.2; about 24 C; no actin
[3] = molecular target: GFP-myosin-7a holoenzyme (full-length, Drosophila) (Drosophila) (UniProt Q9V3Z6); assay: BLI; Octet RED96; GFP-myosin-7a held by biotinylated GFP antibody on streptavidin sensors; 0-25 nM M7BP in solution; 150 mM NaCl, 2 mM MgCl2, 0.1 mM EGTA, 10 mM MOPS, 1% BSA, pH 7.2; 30 C; no actin
[4] = molecular target: GFP-myosin-7a holoenzyme (full-length, Drosophila) (Drosophila) (UniProt Q9V3Z6); assay: single-molecule TIRF motility assay; 20 nM myosin-7a with 20 nM M7BP on surface-immobilised phalloidin-labelled actin filaments; 150 mM KCl, 20 mM MOPS, 5 mM MgCl2, 0.1 mM EGTA, 2 mM ATP, pH 7.4; co-movement and fluorophore counting of moving puncta
[5] = molecular target: myosin-7a heavy chain (Drosophila), FLAG-tagged, co-expressed with light chains (Drosophila) (UniProt Q9V3Z6); assay: co-purification (FLAG affinity chromatography) with SDS-PAGE densitometry; heavy chain and light chains co-expressed in Sf9; heavy chain captured by its FLAG tag; 150 mM NaCl, 2 mM ATP washes

decrease in actin gliding velocity over surface-bound myosin-7a after infusion of 500 nM M7BP, 150 mM KCl [1]: 50%
stoichiometry N [2]: 1
Kd [3]: 6 nM
Substance: M7BP (myosin-7a binding protein), protein isoform C of CG43340, full length (natural protein)

stoichiometry N [4]: 1
Substance: M7BP-mCherry (natural protein)

stoichiometric ratio of strongly bound calmodulin to ELC/Mlc-c on the heavy chain [5]: 4
Substance: Drosophila calmodulin (from UniProt P62152 1-149) (natural protein)
